Test results reported in the supplement of paper PMC5998384.

What was measured:
HeLa Kyoto [1] = experiment: solubility in G1/S (NP-40 vs SDS abundance) (log2 ratio); higher = more soluble; conditions: cell cycle stage: G1/S
HeLa Kyoto [2] = experiment: melting temperature (median over replicates), in situ; higher = more thermally stable
HeLa Kyoto [3] = experiment: solubility change mitosis vs G1/S (difference of NP-40 vs SDS log2 ratios) (log2 ratio difference); higher = more soluble in mitosis
HeLa Kyoto [4] = experiment: thermal stability score vs G1/S (z-score of summed log2 fold changes over temperatures); higher = more thermally stable than in G1/S
[5] = cell cycle stage: early G1 (4.5 h after nocodazole release)
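For melting temperature (median over replicates), in situ in this document: HeLa Kyoto cells synchronized by double thymidine or nocodazole block, proteins quantified by TMT10plex mass spectrometry, three independent biological replicates.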
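For solubility change mitosis vs G1/S (difference of NP-40 vs SDS log2 ratios) in this document: synchronized HeLa Kyoto cells (double thymidine block for G1/S, nocodazole release for mitosis), protein amounts in NP-40 versus SDS lysates quantified by mass spectrometry, three biological replicates.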
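For solubility in G1/S (NP-40 vs SDS abundance) in this document: HeLa Kyoto cells arrested at G1/S by double thymidine block, proteins quantified by TMT10plex mass spectrometry in mild NP-40 versus SDS extracts, three biological replicates.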
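For thermal stability score vs G1/S (z-score of summed log2 fold changes over temperatures) in this document: synchronized HeLa Kyoto cells, proteins quantified by TMT10plex mass spectrometry, three biological replicates, mitosis taken 0.5 h after nocodazole release, G1/S directly after double thymidine block.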

## MDPLSELQDDLTLDDTSEALNQLKLASIDEKNWPSDEMPDFPKSDDSKSSSPELVTHLKWDDPYYDIARHQIVEVAGDDKYGRKIIVFSACRMPPSHQLDHSKLLGYLKHTLDQYVESDYTLLYLHHGLTSDNKPSLSWLRDAYREFDRKYKKNIKALYIVHPTMFIKTLLILFKPLISFKFGQKIFYVNYLSELSEHVKLEQLGIPRQVLKYDDFLKSTQKSPATAPKPMPPRPPLPNQQFGVSLQHLQEKNPEQEPIPIVLRETVAYLQAHALTTEGIFRRSANTQVVREVQQKYNMGLPVDFDQYNELHLPAVILKTFLRELPEPLLTFDLYPHVVGFLNIDESQRVPATLQVLQTLPEENYQVLRFLTAFLVQISAHSDQNKMTNTNLAVVFGPNLLWAKDAAITLKAINPINTFTKFLLDHQGELFPSPDPSGL [ARHGAP1]
HeLa Kyoto [1]
  solubility in G1/S (log2): 0.473
HeLa Kyoto [2]; cell cycle stage: G1/S
  melting temperature: 51.4 °C
HeLa Kyoto [2]; cell cycle stage: mitosis
  melting temperature: 51.4 °C
HeLa Kyoto [3]
  solubility change mitosis (log2): -0.0609
HeLa Kyoto [4]; [5]
  thermal stability score: 0.517
HeLa Kyoto [4]; cell cycle stage: mitosis
  thermal stability score: 0.431

## MDPNTIIEALRGTMDPALREAAERQLNEAHKSLNFVSTLLQITMSEQLDLPVRQAGVIYLKNMITQYWPDRETAPGDISPYTIPEEDRHCIRENIVEAIIHSPELIRVQLTTCIHHIIKHDYPSRWTAIVDKIGFYLQSDNSACWLGILLCLYQLVKNYEYKKPEERSPLVAAMQHFLPVLKDRFIQLLSDQSDQSVLIQKQIFKIFYALVQYTLPLELINQQNLTEWIEILKTVVNRDVPNETLQVEEDDRPELPWWKCKKWALHILARLFERYGSPGNVSKEYNEFAEVFLKAFAVGVQQVLLKVLYQYKEKQYMAPRVLQQTLNYINQGVSHALTWKNLKPHIQGIIQDVIFPLMCYTDADEELWQEDPYEYIRMKFDVFEDFISPTTAAQTLLFTACSKRKEVLQKTMGFCYQILTEPNADPRKKDGALHMIGSLAEILLKKKIYKDQMEYMLQNHVFPLFSSELGYMRARACWVLHYFCEVKFKSDQNLQTALELTRRCLIDDREMPVKVEAAIALQVLISNQEKAKEYITPFIRPVMQALLHIIRETENDDLTNVIQKMICEYSEEVTPIAVEMTQHLAMTFNQVIQTGPDEEGSDDKAVTAMGILNTIDTLLSVVEDHKEITQQLEGICLQVIGTVLQQHVLEFYEEIFSLAHSLTCQQVSPQMWQLLPLVFEVFQQDGFDYFTDMMPLLHNYVTVDTDTLLSDTKYLEMIYSMCKKVLTGVAGEDAECHAAKLLEVIILQCKGRGIDQCIPLFVEAALERLTREVKTSELRTMCLQVAIAALYYNPHLLLNTLENLRFPNNVEPVTNHFITQWLNDVDCFLGLHDRKMCVLGLCALIDMEQIPQVLNQVSGQILPAFILLFNGLKRAYACHAEHENDSDDDDEAEDDDETEELGSDEDDIDEDGQEYLEILAKQAGEDGDDEDWEEDDAEETALEGYSTIIDDEDNPVDEYQIFKAIFQTIQNRNPVWYQALTHGLNEEQRKQLQDIATLADQRRAAHESKMIEKHGGYKFSAPVVPSSFNFGGPAPGMN [IPO7]
HeLa Kyoto [1]
  solubility in G1/S (log2): -0.0648
HeLa Kyoto [2]; cell cycle stage: G1/S
  melting temperature: 52.7 °C
HeLa Kyoto [2]; cell cycle stage: mitosis
  melting temperature: 51.3 °C
HeLa Kyoto [3]
  solubility change mitosis (log2): -0.133
HeLa Kyoto [4]; [5]
  thermal stability score: 1.18
HeLa Kyoto [4]; cell cycle stage: mitosis
  thermal stability score: 3.75

## MDREERKTINQGQEDEMEIYGYNLSRWKLAIVSLGVICSGGFLLLLLYWMPEWRVKATCVRAAIKDCEVVLLRTTDEFKMWFCAKIRVLSLETYPVSSPKSMSNKLSNGHAVCLIENPTEENRHRISKYSQTESQQIRYFTHHSVKYFWNDTIHNFDFLKGLDEGVSCTSIYEKHSAGLTKGMHAYRKLLYGVNEIAVKVPSVFKLLIKEVLNPFYIFQLFSVILWSTDEYYYYALAIVVMSIVSIVSSLYSIRKQYVMLHDMVATHSTVRVSVCRVNEEIEEIFSTDLVPGDVMVIPLNGTIMPCDAVLINGTCIVNESMLTGESVPVTKTNLPNPSVDVKGIGDELYNPETHKRHTLFCGTTVIQTRFYTGELVKAIVVRTGFSTSKGQLVRSILYPKPTDFKLYRDAYLFLLCLVAVAGIGFIYTIINSILNEVQVGVIIIESLDIITITVPPALPAAMTAGIVYAQRRLKKIGIFCISPQRINICGQLNLVCFDKTGTLTEDGLDLWGIQRVENARFLSPEENVCNEMLVKSQFVACMATCHSLTKIEGVLSGDPLDLKMFEAIGWILEEATEEETALHNRIMPTVVRPPKQLLPESTPAGNQEMELFELPATYEIGIVRQFPFSSALQRMSVVARVLGDRKMDAYMKGAPEAIAGLCKPETVPVDFQNVLEDFTKQGFRVIALAHRKLESKLTWHKVQNISRDAIENNMDFMGLIIMQNKLKQETPAVLEDLHKANIRTVMVTGDSMLTAVSVARDCGMILPQDKVIIAEALPPKDGKVAKINWHYADSLTQCSHPSAIDPEAIPVKLVHDSLEDLQMTRYHFAMNGKSFSVILEHFQDLVPKLMLHGTVFARMAPDQKTQLIEALQNVDYFVGMCGDGANDCGALKRAHGGISLSELEASVASPFTSKTPSISCVPNLIREGRAALITSFCVFKFMALYSIIQYFSVTLLYSILSNLGDFQFLFIDLAIILVVVFTMSLNPAWKELVAQRPPSGLISGALLFSVLSQIIICIGFQSLGFFWVKQQPWYEVWHPKSDACNTTGSGFWNSSHVDNETELDEHNIQNYENTTVFFISSFQYLIVAIAFSKGKPFRQPCYKNYFFVFSVIFLYIFILFIMLYPVASVDQVLQIVCVPYQWRVTMLIIVLVNAFVSITVEESVDRWGKCCLPWALGCRKKTPKAKYMYLAQELLVDPEWPPKPQTTTEAKALVKENGSCQIITIT [ATP13A3]
HeLa Kyoto [1]
  solubility in G1/S (log2): -0.205
HeLa Kyoto [2]; cell cycle stage: G1/S
  melting temperature: 54.3 °C
HeLa Kyoto [2]; cell cycle stage: mitosis
  melting temperature: 53.9 °C
HeLa Kyoto [3]
  solubility change mitosis (log2): -0.0406
HeLa Kyoto [4]; [5]
  thermal stability score: -0.654
HeLa Kyoto [4]; cell cycle stage: mitosis
  thermal stability score: -0.884

## MDRFVWTSGLLEINETLVIQQRGVRIYDGEEKIKFDAGTLLLSTHRLIWRDQKNHECCMAILLSQIVFIEEQAAGIGKSAKIVVHLHPAPPNKEPGPFQSSKNSYIKLSFKEHGQIEFYRRLSEEMTQRRWENMPVSQSLQTNRGPQPGRIRAVGIVGIERKLEEKRKETDKNISEAFEDLSKLMIKAKEMVELSKSIANKIKDKQGDITEDETIRFKSYLLSMGIANPVTRETYGSGTQYHMQLAKQLAGILQVPLEERGGIMSLTEVYCLVNRARGMELLSPEDLVNACKMLEALKLPLRLRVFDSGVMVIELQSHKEEEMVASALETVSEKGSLTSEEFAKLVGMSVLLAKERLLLAEKMGHLCRDDSVEGLRFYPNLFMTQS [VPS36]
HeLa Kyoto [1]
  solubility in G1/S (log2): -0.823
HeLa Kyoto [2]; cell cycle stage: G1/S
  melting temperature: 51.6 °C
HeLa Kyoto [2]; cell cycle stage: mitosis
  melting temperature: 51 °C
HeLa Kyoto [3]
  solubility change mitosis (log2): -0.0782
HeLa Kyoto [4]; [5]
  thermal stability score: 1.41
HeLa Kyoto [4]; cell cycle stage: mitosis
  thermal stability score: 2.15

## MDRMTEDALRLNLLKRSLDPADERDDVLAKRLKMEGHEAMERLKMLALLKRKDLANLEVPHELPTKQDGSGVKGYEEKLNGNLRPHGDNRTAGRPGKENINDEPVDMSARRSEPERGRLTPSPDIIVLSDNEASSPRSSSRMEERLKAANLEMFKGKGIEERQQLIKQLRDELRLEEARLVLLKKLRQSQLQKENVVQKTPVVQNAASIVQPSPAHVGQQGLSKLPSRPGAQGVEPQNLRTLQGHSVIRSATNTTLPHMLMSQRVIAPNPAQLQGQRGPPKPGLVRTTTPNMNPAINYQPQSSSSVPCQRTTSSAIYMNLASHIQPGTVNRVSSPLPSPSAMTDAANSQAAAKLALRKQLEKTLLEIPPPKPPAPLLHFLPSAANSEFIYMVGLEEVVQSVIDSQGKSCASLLRVEPFVCAQCRTDFTPHWKQEKNGKILCEQCMTSNQKKALKAEHTNRLKNAFVKALQQEQEIEQRLQQQAALSPTTAPAVSSVSKQETIMRHHTLRQAPQPQSSLQRGIPTSARSMLSNFAQAPQLSVPGGLLGMPGVNIAYLNTGIGGHKGPSLADRQREYLLDMIPPRSISQSISGQK [GATAD2B]
HeLa Kyoto [1]
  solubility in G1/S (log2): 0.413
HeLa Kyoto [2]; cell cycle stage: G1/S
  melting temperature: 49 °C
HeLa Kyoto [2]; cell cycle stage: mitosis
  melting temperature: 50.6 °C
HeLa Kyoto [3]
  solubility change mitosis (log2): 0.158
HeLa Kyoto [4]; [5]
  thermal stability score: 1.06
HeLa Kyoto [4]; cell cycle stage: mitosis
  thermal stability score: 3.82
